Read-outs that look alike come from different tables or passages of the source.
How the values were obtained:
Test in all cases: kinase competition assay
SRPK1 [1] = molecular target: T1, SRPK1 (UniProt Q96SB4 1-655)
CLK1 [2] = molecular target: T2, CLK1 (mouse, UniProt P22518 1-483)
SRPK1 [3] = molecular target: T1, SRPK1; remark: listed apart in the source
CLK1 [4] = molecular target: T2, CLK1; remark: listed apart in the source
SRPK1 [5] = molecular target: T1, SRPK1; remark: listed apart in the source
SRPK1 [6] = molecular target: T1, SRPK1; remark: listed apart in the source
CLK1 [7] = molecular target: T2, CLK1; remark: listed apart in the source

T2 sequence (P22518 whole entry): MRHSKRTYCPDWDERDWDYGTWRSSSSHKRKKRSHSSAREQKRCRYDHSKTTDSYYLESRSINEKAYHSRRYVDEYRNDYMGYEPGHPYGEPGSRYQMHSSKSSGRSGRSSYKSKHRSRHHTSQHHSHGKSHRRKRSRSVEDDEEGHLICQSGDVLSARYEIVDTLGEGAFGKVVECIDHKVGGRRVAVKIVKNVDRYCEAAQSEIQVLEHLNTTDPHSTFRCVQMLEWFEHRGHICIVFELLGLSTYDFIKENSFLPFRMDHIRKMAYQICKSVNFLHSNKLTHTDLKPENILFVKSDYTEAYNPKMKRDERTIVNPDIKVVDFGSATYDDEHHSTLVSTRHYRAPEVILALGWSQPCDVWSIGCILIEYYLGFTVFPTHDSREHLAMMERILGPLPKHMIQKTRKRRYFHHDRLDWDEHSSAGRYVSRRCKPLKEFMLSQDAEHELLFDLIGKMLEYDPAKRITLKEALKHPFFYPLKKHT
T1 sequence (Q96SB4 whole entry): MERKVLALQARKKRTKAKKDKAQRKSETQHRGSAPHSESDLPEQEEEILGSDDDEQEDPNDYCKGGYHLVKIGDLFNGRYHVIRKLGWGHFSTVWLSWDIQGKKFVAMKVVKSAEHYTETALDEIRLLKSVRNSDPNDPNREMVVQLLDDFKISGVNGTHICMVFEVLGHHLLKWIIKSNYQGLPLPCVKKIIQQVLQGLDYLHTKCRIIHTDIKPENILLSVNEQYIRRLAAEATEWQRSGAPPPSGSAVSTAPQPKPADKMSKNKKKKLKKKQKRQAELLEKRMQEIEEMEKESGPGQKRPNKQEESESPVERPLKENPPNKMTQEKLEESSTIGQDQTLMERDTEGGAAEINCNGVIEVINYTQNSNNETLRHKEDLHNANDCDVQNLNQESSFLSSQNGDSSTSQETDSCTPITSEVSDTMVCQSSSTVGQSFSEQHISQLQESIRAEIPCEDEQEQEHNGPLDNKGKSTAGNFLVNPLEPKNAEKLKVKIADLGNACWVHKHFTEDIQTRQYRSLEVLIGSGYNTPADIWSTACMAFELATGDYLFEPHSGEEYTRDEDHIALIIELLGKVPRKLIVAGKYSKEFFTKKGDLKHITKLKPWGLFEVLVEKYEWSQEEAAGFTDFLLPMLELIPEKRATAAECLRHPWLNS

Binder | Ki (CLK1 [2]) | appKI (CLK1 [2]) | Ki (SRPK1 [3]) | appKI (SRPK1 [3]) | other results
SR(RRM1-2) (domain or fragment) MSGGGVIRGPAGNNDCRIYVGNLPPDIRTKDIEDVFYKYGAIRDIDLKNRRGGPPFAFVEFEDPRDAEDAVYGRDGYDYDGYRLRVEFPRSGRGTGRGGGGGGGGGAPRGRYGPPSRRSENRVVVSGLPPSGSWQDLKDHMREAGDVCYADVYRDGTGVVEFVRKEDMTYAVRKLDNTKFRSHEGETAYIRVKVD |  |  |  |  | Ki (SRPK1 [1]): 170 ± 30 nM
AYIRVKVDGPRSPSYGRSRSRSRSRSRSRSRSNSRSRSYSP (domain or fragment, UniProt Q07955 188-228, looked up) [SR(188–228)] | 240 ± 30 nM | 370 ± 40 nM | 190 ± 30 nM | 280 ± 50 nM | 
SR(RRM2) (domain or fragment) NRVVVSGLPPSGSWQDLKDHMREAGDVCYADVYRDGTGVVEFVRKEDMTYAVRKLDNTKFRSHEGETAYIRVKVD |  |  |  |  | Ki (SRPK1 [1]): 2900 ± 500 nM
SR(ΔRRM2) (domain or fragment) MSGGGVIRGPAGNNDCRIYVGNLPPDIRTKDIEDVFYKYGAIRDIDLKNRRGGPPFAFVEFEDPRDAEDAVYGRDGYDYDGYRLRVEFPRSGRGTGRGGGGGGGGGAPRGRYGPPSRRSEGPRSPSYGRSRSRSRSRSRSRSRSNSRSRSYSPRRSRGSPRYSPRHSRSRSRT |  |  |  |  | Ki (CLK1 [4]): 130 ± 30 nM; Ki (SRPK1 [5]): 300 ± 100 nM
SR(P200,228,235A) (natural protein, UniProt Q07955 1-248, looked up) MSGGGVIRGPAGNNDCRIYVGNLPPDIRTKDIEDVFYKYGAIRDIDLKNRRGGPPFAFVEFEDPRDAEDAVYGRDGYDYDGYRLRVEFPRSGRGTGRGGGGGGGGGAPRGRYGPPSRRSENRVVVSGLPPSGSWQDLKDHMREAGDVCYADVYRDGTGVVEFVRKEDMTYAVRKLDNTKFRSHEGETAYIRVKVDGPRSASYGRSRSRSRSRSRSRSRSNSRSRSYSARRSRGSARYSPRHSRSRSRT |  |  |  |  | Ki (SRPK1 [6]): 33 ± 3 nM; appKI (SRPK1 [6]): 80 ± 8 nM; Ki (CLK1 [7]): 130 ± 20 nM; appKI (CLK1 [7]): 440 ± 70 nM
AYIRVKVDGPRSPSYGRSRSRSRSRSRSRSRSNSRSRSYSPRRSRGSP (domain or fragment, UniProt Q07955 188-235, looked up) [SR(188–235)] | 120 ± 10 nM | 180 ± 20 nM | 110 ± 7 nM | 170 ± 10 nM | 
AYIRVKVDGPRSPSYGRSRSRSRSRSRSRSRSN (domain or fragment, UniProt Q07955 188-220, looked up) [SR(188–220)] | 290 ± 20 nM | 440 ± 40 nM | 350 ± 200 nM | 520 ± 40 nM | 

Reference: PMC3860265 (Journal of molecular biology, 2013)
